Source: the supplement of paper PMC9732359
± gives the uncertainty stated by the source.

Test: protein stability index of a GFP-peptide fusion (yeast GPS) (PSI 1-4); higher = more stable; sorted into four equal gates, so the index is relative within each strain
Outline: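 Tiled yeast protein peptides of 17 residues were each joined downstream of GFP, on plasmids that also express Cherry. The pooled library was maintained in yeast, and mid-log cultures in leucine-free medium were sorted into four equal gates on the GFP/Cherry ratio. Plasmids from every gate were amplified by PCR and sequenced on Illumina, with barcodes linking reads to strains. The protein stability index of a peptide is its gate-number-weighted read frequency summed over the gates.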

Sequence | protein stability index (doa10∆) | protein stability index (pdr5∆) | protein stability index (san1∆) | protein stability index (ubr1∆)
VDIGGKQHAVLMLGSVN [RRP4] | 2.06 ± 0.052 | 2.66 ± 0.052 | 2.68 ± 0.06 | 2.6 ± 0.037
DDRDHFGKKRLDLAGPL [RPB2] |  | 2.85 ± 0.16 | 3.2 ± 0.21 | 3.31 ± 0.16
RTGPKALPDAVTIIEPK [RPS3] | 2.97 ± 0.058 | 3.03 ± 0.066 | 3.1 ± 0.059 | 3.09 ± 0.06
SLNEVGTLKVILNLYSS [YML103C/NUP188] | 1.93 ± 0.12 | 2.11 ± 0.29 |  | 2.4 ± 0.11
DLKKLNLNVYIQVFEKP [CDC53] | 2.23 ± 0.11 | 2.5 ± 0.17 | 2.33 ± 0.27 | 2.78 ± 0.09
IGGLLSKVREEVGDVCI [RPO31] | 2.13 ± 0.1 | 1.86 ± 0.067 | 2.11 ± 0.11 | 2.79 ± 0.11
NDIAGQPQALQKSGRPV [RPO21] | 2.93 ± 0.087 | 3.16 ± 0.12 | 2.84 ± 0.16 | 2.96 ± 0.073
FTAGARAKIVKAGGECI [RPL18A] | 1.29 ± 0.081 | 1.27 ± 0.067 | 1.18 ± 0.17 | 1.13 ± 0.061
GTLWAHVLKTVDYGGAE [SNU114] | 1.44 ± 0.084 | 1.32 ± 0.057 | 1.65 ± 0.16 | 1.36 ± 0.057
MVNTQQPIVTGTSVISM [PRE4] | 2.1 ± 0.26 | 2.69 ± 0.23 | 1.95 ± 0.14 | 1.96 ± 0.2
PQQAQMQQAQFQAQQAQ [SNF2] | 2.94 ± 0.062 | 3.04 ± 0.058 | 2.99 ± 0.055 | 3.1 ± 0.041
MLNLIDDVKNILNAKYT [RPN6] | 2.85 ± 0.18 | 2.57 ± 0.09 | 2.86 ± 0.061 | 2.86 ± 0.068
KEKIKGLQDEIMKIGGI [SMC4] | 3 ± 0.09 | 3.19 ± 0.055 | 3.17 ± 0.049 | 3.36 ± 0.063
LKRFPKMSVTCNAQPIT [BRR2] | 2.33 ± 0.066 | 2.23 ± 0.06 | 2.02 ± 0.11 | 1.9 ± 0.037
FLKEVLSDLSSPVQDWN [YML103C/NUP188] | 2.92 ± 0.088 | 3.03 ± 0.097 | 2.76 ± 0.11 | 2.96 ± 0.068
EKVFTQGLNILEWLENP [FAS1] | 3.18 ± 0.12 | 2.98 ± 0.081 | 3.44 ± 0.054 | 3.17 ± 0.046
LQVADKFFRVKYENKIS [SMC3] | 2.14 ± 0.073 | 2.3 ± 0.05 | 1.67 ± 0.092 | 1.52 ± 0.03
TFLLNNKNIDIGLLNKS [RPN2] | 3.38 ± 0.21 | 3.11 ± 0.27 |  | 2.61 ± 0.11
AYKFEEVSKDLIAVYYS [RPB8] | 2.94 ± 0.071 | 3.14 ± 0.067 | 3.32 ± 0.045 | 3.11 ± 0.055
QEVTNEAPFLTSGTSSE [GAL11] | 3.35 ± 0.079 | 3.35 ± 0.08 | 3.42 ± 0.067 | 3.13 ± 0.073
FHKYRLKRNSWPKTRGV [RPL2A] | 2.44 ± 0.099 | 2.71 ± 0.1 | 2.83 ± 0.12 | 2.31 ± 0.091
EPLAIALSMGKSSAFVI [ARP7] | 1.48 ± 0.076 | 2.02 ± 0.071 | 1.67 ± 0.1 | 1.77 ± 0.089
LLEFFELVFSKGVYLIL [YML103C/NUP188] | 2.13 ± 0.087 | 2.4 ± 0.093 | 1.97 ± 0.093 | 2.26 ± 0.076
FSQFWYWFPLAHFLSLS [RPN2] | 1.66 ± 0.044 | 1.32 ± 0.045 | 1.21 ± 0.11 | 1.19 ± 0.038
YMLIEEAASSNKSFIVD [ITC1] | 2.96 ± 0.078 | 2.91 ± 0.06 | 2.78 ± 0.041 | 2.9 ± 0.049
SSPEEPFMSYSPQLTAI [SNF12] | 2.45 ± 0.065 | 2.79 ± 0.063 | 2.7 ± 0.066 | 2.77 ± 0.051

Sequence | protein stability index (doa10∆) | protein stability index (pdr5∆) | protein stability index (san1∆) | protein stability index (ubr1∆)
RTMYFILDGQDVEENRS [YJR042W/NUP85] | 2.45 ± 0.077 | 3.03 ± 0.089 | 3.22 ± 0.086 | 3.23 ± 0.044
SNKPIFLFAPELGAINL [SWI1] | 2.23 ± 0.062 | 1.91 ± 0.051 | 2.08 ± 0.089 | 2.11 ± 0.046
QQAQSFVGKKNTIGSVH [SSN3] | 3.14 ± 0.1 | 3.12 ± 0.12 | 3.1 ± 0.081 | 2.98 ± 0.097
KWPEYVRLQRQKKILSI [RPL8B] | 1.18 ± 0.061 | 1.16 ± 0.056 | 1.14 ± 0.098 | 1.17 ± 0.039
LGLYVGVDDQILATNSL [YJL039C/NUP192] | 2.64 ± 0.092 | 3.06 ± 0.12 | 2.3 ± 0.11 | 1.73 ± 0.16
VVSTTAVIESVVNQPTG [FAS1] | 2.06 ± 0.078 | 1.82 ± 0.087 | 1.99 ± 0.11 | 2.1 ± 0.079
QQQPQPQYNMNMGMNNM [PGD1] | 3.02 ± 0.049 | 2.77 ± 0.05 | 3.29 ± 0.041 | 2.89 ± 0.069
AGYTDNVIRVWQVMTAN [ASC1] | 1.56 ± 0.14 | 1.35 ± 0.08 | 1.5 ± 0.21 | 1.3 ± 0.075
LIQSTEFPSITSSVILG [YOR098C/NUP1] | 3.16 ± 0.12 | 3.44 ± 0.11 | 2.11 ± 0.13 | 3.17 ± 0.079
HCGALNGVVKKAAAGAG [RPO31] | 1.35 ± 0.27 | 2.38 ± 0.19 |  | 
KKITLQLLDTSNQRFKD [SIN4] | 3.02 ± 0.059 | 3.18 ± 0.067 | 2.91 ± 0.048 | 2.88 ± 0.039
TGEFDFEAAVKMSDGFN [RPT4] | 2.91 ± 0.15 | 3.33 ± 0.14 | 2.57 ± 0.18 | 3.31 ± 0.16
KNVNIEDITEPKPDKPS [ESC2] | 2.96 ± 0.094 | 3.1 ± 0.099 | 2.51 ± 0.1 | 2.94 ± 0.13
YNHNDGGDGRDYKGAKL [RRI1] | 2.57 ± 0.13 | 3.2 ± 0.088 | 3.14 ± 0.078 | 2.96 ± 0.092
ISMNAPVFVDLEGETDP [RPO26] |  | 2.78 ± 0.3 |  | 3 ± 0.19
KKLDDKPSLVDVHLLES [RPN6] | 1.1 ± 0.12 | 1.29 ± 0.14 |  | 
YIRVNHADKDTFSSSIS [POP8] | 2.76 ± 0.049 | 2.61 ± 0.052 | 2.52 ± 0.053 | 2.18 ± 0.037
TETEVEREQPQENKNID [SRB4] | 3.42 ± 0.1 | 3.41 ± 0.091 | 3.07 ± 0.068 | 3.62 ± 0.089
SLISVLEASLNSITKDN [YJL039C/NUP192] | 2.46 ± 0.052 | 2.24 ± 0.038 | 2.31 ± 0.048 | 2.09 ± 0.026
NSNINTLTASPDGTLIA [ASC1] | 2.88 ± 0.078 | 2.68 ± 0.061 | 2.88 ± 0.061 | 2.82 ± 0.046
YAKFKRNTMMIQCQIDK [RGR1] | 2.23 ± 0.055 | 2.24 ± 0.051 | 2.1 ± 0.065 | 2.34 ± 0.033
SLSEGCDILVATPGRLI [PRP28] | 3.47 ± 0.12 | 3.23 ± 0.084 | 3.25 ± 0.047 | 3.28 ± 0.05
IEGVVILKKNPDYREEE [RPN1] | 3.06 ± 0.08 | 3.09 ± 0.09 | 3.1 ± 0.075 | 3.1 ± 0.062
YFKMFPASKHDKEVVYF [RPC34] | 2.72 ± 0.16 | 3.2 ± 0.093 | 3.26 ± 0.075 | 3.4 ± 0.19
IMDNDPVLFNRQPSLHK [RPO21] | 1.77 ± 0.074 | 2.17 ± 0.069 | 2.26 ± 0.23 | 1.84 ± 0.074
